In patent US20020025569A1 (GPC BIOTECH, published 2002):

T1: GST-fusion protein containing amino acids 696-902 of human cdc4
T1 sequence: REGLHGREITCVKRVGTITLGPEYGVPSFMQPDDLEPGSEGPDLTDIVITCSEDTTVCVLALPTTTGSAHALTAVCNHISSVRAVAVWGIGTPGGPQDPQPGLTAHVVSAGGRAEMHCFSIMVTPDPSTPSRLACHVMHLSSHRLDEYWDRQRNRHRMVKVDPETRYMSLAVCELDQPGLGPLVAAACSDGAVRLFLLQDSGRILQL


Assays:
[1] = system: T1, GST-fusion protein containing amino acids 696-902 of human cdc4
[2] = molecular target: T2, human p19 skp1, expressed as a LexA fusion protein from vector pBTM116 (human, UniProt P63208 1-163, limits assumed); experiment: yeast two-hybrid (LexA-skp1 bait, mouse cDNA-VP16 library)
T2 construct: Bait of the yeast two-hybrid screen in S. cerevisiae L40; also called human skp1
Description: A full length cDNA encoding a mouse homolog of yeast cdc4 protein was cloned through its ability to specifically interact with human p19 skp1 in a yeast two hybrid system. Briefly, human skp1 was cloned into the vector pBTM116 for expression as a LexA fusion protein. This construct was transformed into S. Cerevisiae strain L40 (MATa his3 200 trp1-900 leu2-3,112 ade LYS2::lexAop)₄-HIS3 URA3::(lexAop)₈-lacZ GAL4). Skp1 interacting clones were selected in the presence of 1 mM 3-aminotriazole after transformation of a mouse cDNA-VP16 fusion library. Specificity of the interacting clones was assessed with the D. Melanogaster daughterless gene.

T2 sequence (P63208 whole entry, the tested form may be a part): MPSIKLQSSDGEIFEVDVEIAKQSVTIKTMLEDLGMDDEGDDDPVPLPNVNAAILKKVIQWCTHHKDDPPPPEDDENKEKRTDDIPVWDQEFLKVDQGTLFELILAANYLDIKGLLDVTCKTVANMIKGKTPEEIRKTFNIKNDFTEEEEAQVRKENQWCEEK

| Molecule | in vitro ubiquitination reaction (E1, E2, biotinylated ubiquitin; streptavidin-HRP after non-reducing SDS-PAGE) [1] | binding result [2] |
| --- | --- | --- |
| UBC4 | cdc4 polypeptide was found to be ubiquitinated by UBC4 | – |
| UBC2 | though to a lesser extent, UBC2 | – |
| mouse cdc4 (clone from a mouse cDNA-VP16 fusion library; 486 base pair fragment) (other, not shown: large carriers, VP16 is placed first from knowledge of such libraries; also called mu-cdc4; mcdc4) TFTHEAPNQRRRLILCSAATDGSLAFWDLTTAMDKGSTTLELPAHPGLPYQMGTPSMTVQAHSCGVNSLHTLPTPEGHHLVASGSEDGSLHVFTLAVKMPEPEEADGEAELVPQLCVLEEYSVPCAHAAHVTGVKILSPKLMVSASIDQRLTFWRLGQGEPP | – | binds |
